This passage reports koff results from publication PMC3081289 (2011).

The test concerns the target T1, Vascular Endothelial Growth Factor (VEGF), receptor binding domain, VEGF_(8–109) (human).
T1 chain: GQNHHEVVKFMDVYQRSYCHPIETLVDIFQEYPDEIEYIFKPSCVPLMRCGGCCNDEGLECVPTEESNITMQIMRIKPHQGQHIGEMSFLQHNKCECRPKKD
Put plainly: SPR.

B1: bH1-44 Fab (affinity-improved variant of bH1) (Fab, V domains shown)
VH: EVQLVESGGGLVQPGGSLRLSCAASGFNISGTYIHWVRQAPGKGLEWVARIYPSEGYTRYADSVKGRFTISADTSKNTAYLQMNSLRAEDTAVYYCSRWVGVGFYAMDYWGQGTLVTVSS
VL: DIQMTQSPSSLSASVGDRVTITCRASQNIAKTISGYVAWYQQKPGKAPKLLIYWGSFLYSGVPSRFSGSGSGTDFTLTISSLQPEDFATYYCQQHYSSPPTFGQGTKVEIK
B1 registered a koff of 0.0014 s⁻¹.

By koff is commonly meant the rate constant with which the complex falls apart. Lower therefore signals a long-lived complex.
